EP4703474A1, “ANTI-LRRC15 ANTIBODY” (priority 2023, dated 2024)
Substitutions are numbered along the chain they refer to.

B1: rR024 antibody (antibody, rat IgG2b, V domains shown)
VH: EVQLVESNGALVQPGRSLKLSCAASGFTFRDYYMAWVRQAPSKGLEWVASIGFDESRTYYRDSVKGRFTISRDDVKSTLYLQLDSLRSEDTATYYCTRHGVSYYSGDNWFAYWGQGALVIVSS
VL: DIVMTQSPSSLAVSAGETVIINCKSSQGLLYSGDQKNYLAWYQQKPGQSPKLLIYWASTRQSGVPDRFIGSGSGTDFTLTISSVQGEDLAIYYCQQYYDPPYTFGAGTKLELKR
notes: Rat monoclonal antibody from hybridoma culture supernatant; rat IgG2b, kappa light chain; also called clone rR024
B2: H02L01 antibody (antibody, human IgG1, kappa, L234A L235A, V domains shown)
VH: EVQLVESGGGLVQPGGSLRLSCAASGFTFRDYYMAWVRQAPGKGLEWVSSIGFDESRTYYADSVKGRFTISRDDSKNTLYLQMNSLRAEDTAVYYCARHGVSYYSGDNWFAYWGQGTLVTVSS
VL: DIQMTQSPSSLSASVGDRVTITCKSSQGLLYSGDQKNYLAWYQQKPGKAPKLLIYWASTRQSGVPSRFSGSGSGTDFTLTISSLQPEDFATYYCQQYYDPPYTFGQGTKVEIKR
notes: Humanized anti-LRRC15 antibody, human IgG1 / kappa; also called hR024 (hR024 H02 + hR024 L01)
B3: H02L01-V2 antibody (antibody, human IgG1, kappa, L234A L235A, V domains shown)
VH: B2 VH with Y103R
VL: B2 VL
notes: Humanized anti-LRRC15 antibody, human IgG1 / kappa; also called hR024 (hR024 H02-V2 + hR024 L01)
B4: H02L01-V1 antibody (antibody, human IgG1, kappa, L234A L235A, V domains shown)
VH: B2 VH with Y103K
VL: B2 VL
notes: Humanized anti-LRRC15 antibody, human IgG1 / kappa; also called hR024 (hR024 H02-V1 + hR024 L01)
B5: H09L03 antibody (antibody, human IgG1, kappa, L234A L235A, V domains shown)
VH: B2 VH with S49A, N77S, A97T
VL: B2 VL with A49S, S66D
notes: Humanized anti-LRRC15 antibody, human IgG1 / kappa; also called hR024 (hR024 H09 + hR024 L03)

What was measured:
[1] = target: T1, human LRRC15 (full-length, on cells) (human, UniProt Q8TF66 22-581); assay: Cell-ELISA, hybridoma supernatant on HEK293α transfected with pcDNA3.1-hLRRC15
T1 construct: also called hLRRC15; endogenous LRRC15 of Hs294T
T1 sequence: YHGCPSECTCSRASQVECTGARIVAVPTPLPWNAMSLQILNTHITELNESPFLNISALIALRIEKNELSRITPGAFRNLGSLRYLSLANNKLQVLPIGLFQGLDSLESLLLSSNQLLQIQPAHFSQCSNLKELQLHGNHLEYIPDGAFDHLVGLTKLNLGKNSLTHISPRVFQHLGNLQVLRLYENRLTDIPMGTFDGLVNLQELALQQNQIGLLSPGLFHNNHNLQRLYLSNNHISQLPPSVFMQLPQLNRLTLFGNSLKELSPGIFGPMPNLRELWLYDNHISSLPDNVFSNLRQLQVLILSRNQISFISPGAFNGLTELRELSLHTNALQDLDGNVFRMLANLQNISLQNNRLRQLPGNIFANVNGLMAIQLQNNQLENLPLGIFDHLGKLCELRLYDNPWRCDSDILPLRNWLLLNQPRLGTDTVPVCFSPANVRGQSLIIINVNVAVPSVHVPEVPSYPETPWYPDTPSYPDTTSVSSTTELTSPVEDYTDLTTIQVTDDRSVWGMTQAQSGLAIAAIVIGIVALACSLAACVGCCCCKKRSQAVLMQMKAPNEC

[2] = target: T2, cynomolgus monkey LRRC15 extracellular domain expressed on HEK293α (pDisplay-cynoLRRC15 ECD) (cynomolgus monkey, UniProt Q8TF66 22-538 (human entry)); assay: flow cytometry, transfected HEK293α, 10 µg/mL
T2 construct: vector-derived parts not described
T2 chain: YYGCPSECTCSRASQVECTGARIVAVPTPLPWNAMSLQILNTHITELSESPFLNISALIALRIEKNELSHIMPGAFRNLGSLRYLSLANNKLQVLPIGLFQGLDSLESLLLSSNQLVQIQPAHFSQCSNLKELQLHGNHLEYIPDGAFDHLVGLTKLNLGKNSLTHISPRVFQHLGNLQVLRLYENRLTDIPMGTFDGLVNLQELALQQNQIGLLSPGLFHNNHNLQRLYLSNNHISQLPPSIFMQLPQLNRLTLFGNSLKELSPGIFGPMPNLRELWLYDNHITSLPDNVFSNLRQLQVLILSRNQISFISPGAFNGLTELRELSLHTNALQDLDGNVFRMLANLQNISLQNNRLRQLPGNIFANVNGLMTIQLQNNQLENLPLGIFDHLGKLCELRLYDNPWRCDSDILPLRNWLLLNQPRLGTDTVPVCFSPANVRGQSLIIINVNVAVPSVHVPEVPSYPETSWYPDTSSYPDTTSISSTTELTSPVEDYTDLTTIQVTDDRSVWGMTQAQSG

[3] = target: T3, human LRRC15 extracellular domain expressed on HEK293α (pDisplay-hLRRC15 ECD) (human, UniProt Q8TF66 22-538); assay: flow cytometry, HEK293α expressing WT human LRRC15 ECD
T3 construct: also called WT; human LRRC15 wild-type
T3 sequence: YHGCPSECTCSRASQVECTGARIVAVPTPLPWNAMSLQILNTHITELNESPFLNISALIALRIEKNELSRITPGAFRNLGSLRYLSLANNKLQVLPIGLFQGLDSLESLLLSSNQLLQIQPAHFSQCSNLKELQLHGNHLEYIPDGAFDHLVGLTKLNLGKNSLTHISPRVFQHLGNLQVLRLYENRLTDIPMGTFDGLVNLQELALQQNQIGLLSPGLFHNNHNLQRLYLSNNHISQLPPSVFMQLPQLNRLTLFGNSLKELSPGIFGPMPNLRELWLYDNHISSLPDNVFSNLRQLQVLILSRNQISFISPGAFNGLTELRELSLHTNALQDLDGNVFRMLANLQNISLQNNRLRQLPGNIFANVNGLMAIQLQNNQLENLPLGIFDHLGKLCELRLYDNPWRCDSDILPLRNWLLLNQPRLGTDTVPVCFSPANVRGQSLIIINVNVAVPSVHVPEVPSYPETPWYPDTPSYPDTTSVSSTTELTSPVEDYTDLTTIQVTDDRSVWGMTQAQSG

[4] = target: T1, human LRRC15 (full-length, on cells); assay: flow cytometry, endogenous LRRC15 on human melanoma line Hs294T
[5] = target: T3, human LRRC15 extracellular domain …; assay: flow cytometry, transfected HEK293α, 10 µg/mL
[6] = target: T4, human LRRC15-His protein (human, UniProt Q8TF66 22-538); assay: SPR, Biacore T200; antibody captured by anti-human IgG (Fc), human LRRC15-His as analyte, 1:1 model
T4 construct: Recombinant, expressed in mammalian cells; also called human LRRC15 antigen; hLRRC15-His
T4 sequence: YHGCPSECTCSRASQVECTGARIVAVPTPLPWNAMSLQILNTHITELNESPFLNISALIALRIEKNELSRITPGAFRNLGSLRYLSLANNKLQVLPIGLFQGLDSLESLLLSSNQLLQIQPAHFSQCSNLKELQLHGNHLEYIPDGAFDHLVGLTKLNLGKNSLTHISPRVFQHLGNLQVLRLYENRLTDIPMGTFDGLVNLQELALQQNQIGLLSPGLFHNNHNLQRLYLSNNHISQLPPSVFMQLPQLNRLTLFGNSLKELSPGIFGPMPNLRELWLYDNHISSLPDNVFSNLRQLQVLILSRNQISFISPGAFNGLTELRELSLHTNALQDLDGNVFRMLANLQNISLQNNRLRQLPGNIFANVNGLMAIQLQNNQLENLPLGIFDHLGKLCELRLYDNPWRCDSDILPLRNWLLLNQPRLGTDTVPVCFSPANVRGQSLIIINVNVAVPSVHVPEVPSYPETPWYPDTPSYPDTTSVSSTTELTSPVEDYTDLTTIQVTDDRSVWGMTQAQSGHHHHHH

Binder | binding result [1] | binding result [2] | binding result [3] | binding result [4] | binding result [5] | Kd [6] [nM]
B1 | binds |  |  |  |  | 
B2 |  | binds | binds | binds |  | 
B3 |  | binds |  | binds | binds | 
B4 |  | binds |  |  |  | 59.9
B5 |  | binds |  | binds | binds | 
